Legend:
HeLa Kyoto [1] = assay: thermal stability score vs G1/S (z-score of summed log2 fold changes over temperatures); higher = more thermally stable than in G1/S
HeLa Kyoto [2] = assay: solubility change mitosis vs G1/S (difference of NP-40 vs SDS log2 ratios) (log2 ratio difference); higher = more soluble in mitosis
HeLa Kyoto [3] = assay: melting temperature (median over replicates), in situ; higher = more thermally stable
HeLa Kyoto [4] = assay: solubility in G1/S (NP-40 vs SDS abundance) (log2 ratio); higher = more soluble; conditions: cell cycle stage: G1/S
[5] = cell cycle stage: early G1 (4.5 h after nocodazole release)
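For melting temperature (median over replicates), in situ in this document: HeLa Kyoto cells synchronized by double thymidine or nocodazole block, proteins quantified by TMT10plex mass spectrometry, three independent biological replicates.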
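For solubility change mitosis vs G1/S (difference of NP-40 vs SDS log2 ratios) in this document: synchronized HeLa Kyoto cells (double thymidine block for G1/S, nocodazole release for mitosis), protein amounts in NP-40 versus SDS lysates quantified by mass spectrometry, three biological replicates.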
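For solubility in G1/S (NP-40 vs SDS abundance) in this document: HeLa Kyoto cells arrested at G1/S by double thymidine block, proteins quantified by TMT10plex mass spectrometry in mild NP-40 versus SDS extracts, three biological replicates.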
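For thermal stability score vs G1/S (z-score of summed log2 fold changes over temperatures) in this document: synchronized HeLa Kyoto cells, proteins quantified by TMT10plex mass spectrometry, three biological replicates, mitosis taken 0.5 h after nocodazole release, G1/S directly after double thymidine block.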

| Sequence | thermal stability score (HeLa Kyoto [1]; [5]) | thermal stability score (HeLa Kyoto [1]; cell cycle stage: mitosis) | solubility change mitosis (log2) (HeLa Kyoto [2]) | melting temperature (HeLa Kyoto [3]; cell cycle stage: G1/S) | melting temperature (HeLa Kyoto [3]; cell cycle stage: mitosis) | solubility in G1/S (log2) (HeLa Kyoto [4]) |
| --- | --- | --- | --- | --- | --- | --- |
| MSGAALGLEIVFVFFLALFLLHRYGDFKKQHRLVIIGTLLAWYLCFLIVFILPLDVSTTIYNRCKHAAANSSPPENSNITGLYATANPVPSQHPCFKPWSYIPDGIMPIFWRVVYWTSQFLTWILLPFMQSYARSGGFSITGKIKTALIENAIYYGTYLLIFGAFLIYVAVNPHLHLEWNQLQTIGIAAANTWGLFLLVLLLGYGLVEIPRSYWNGAKRGYLLMKTYFKAAKLMTEKADAEENLEDAMEEVRKVNESIKYNHPLRKCVDTILKKCPTEYQEKMGRNMDDYEDFDEKHSIYPSEKSLVKLHKQVIYSVQRHRRTQVQWQILLEQAFYLEDVAKNETSATHQFVHTFQSPEPENRFIQYFYNPTFEWYWECLLRPWFYKILAVVLSIFSVIVVWSECTFFSTTPVLSLFAVFIQLAEKTYNYIYIEIACFLSIFFLSICVYSTVFRIRVFNYYYLASHHQTDAYSLLFSGMLFCRLTPPLCLNFLGLTHMDSSISHKNTQPTAYTSIMGSMKVLSFIADGFYIYYPMLVVILCIATYFSLGTRCLNLLGFQQFMGDDDMTSDLVNEGKELIRKEKRKRQRQEEGENRRREWKERYGHNREDSTRNRNIHTDPKESNFSDVNTNRSAFKYTRANNRTERDRIELLQDAEPLDFNAETFTDDPLESESGRYQPGGRYLSMSRSDIFNDV [LMBRD2] | -0.0528 | -1.48 | -0.00686 | 55.4 °C | 53.8 °C | -0.331 |
| MSGEENPASKPTPVQDVQGDGRWMSLHHRFVADSKDKEPEVVFIGDSLVQLMHQCEIWRELFSPLHALNFGIGGDGTQHVLWRLENGELEHIRPKIVVVWVGTNNHGHTAEQVTGGIKAIVQLVNERQPQARVVVLGLLPRGQHPNPLREKNRQVNELVRAALAGHPRAHFLDADPGFVHSDGTISHHDMYDYLHLSRLGYTPVCRALHSLLLRLLAQDQGQGAPLLEPAP [PAFAH1B3] | 0.482 | 1.01 | -0.0232 | 50.6 °C | 51 °C | 0.751 |
| MSGESARSLGKGSAPPGPVPEGSIRIYSMRFCPFAERTRLVLKAKGIRHEVININLKNKPEWFFKKNPFGLVPVLENSQGQLIYESAITCEYLDEAYPGKKLLPDDPYEKACQKMILELFSKVPSLVGSFIRSQNKEDYAGLKEEFRKEFTKLEEVLTNKKTTFFGGNSISMIDYLIWPWFERLEAMKLNECVDHTPKLKLWMAAMKEDPTVSALLTSEKDWQGFLELYLQNSPEACDYGL [GSTO1] | 1.3 | -0.166 | -0.0339 | 53.7 °C | 54.2 °C | 0.508 |
| MSGFSTEERAAPFSLEYRVFLKNEKGQYISPFHDIPIYADKDVFHMVVEVPRWSNAKMEIATKDPLNPIKQDVKKGKLRYVANLFPYKGYIWNYGAIPQTWEDPGHNDKHTGCCGDNDPIDVCEIGSKVCARGEIIGVKVLGILAMIDEGETDWKVIAINVDDPDAANYNDINDVKRLKPGYLEATVDWFRRYKVPDGKPENEFAFNAEFKDKDFAIDIIKSTHDHWKALVTKKTNGKGISCMNTTLSESPFKCDPDAARAIVDALPPPCESACTVPTDVDKWFHHQKN [PPA1] | 0.184 | -1.97 | 0.0519 | 54.1 °C | 54.2 °C | 0.43 |
| MSGGKYVDSEGHLYTVPIREQGNIYKPNNKAMADELSEKQVYDAHTKEIDLVNRDPKHLNDDVVKIDFEDVIAEPEGTHSFDGIWKASFTTFTVTKYWFYRLLSALFGIPMALIWGIYFAILSFLHIWAVVPCIKSFLIEIQCISRVYSIYVHTVCDPLFEAVGKIFSNVRINLQKEI [CAV1] | -2.45 | -3.05 | -0.0544 | 57.3 °C | 54.6 °C | -0.297 |
| MSGGSADYNREHGGPEGMDPDGVIESNWNEIVDNFDDMNLKESLLRGIYAYGFEKPSAIQQRAIIPCIKGYDVIAQAQSGTGKTATFAISILQQLEIEFKETQALVLAPTRELAQQIQKVILALGDYMGATCHACIGGTNVRNEMQKLQAEAPHIVVGTPGRVFDMLNRRYLSPKWIKMFVLDEADEMLSRGFKDQIYEIFQKLNTSIQVVLLSATMPTDVLEVTKKFMRDPIRILVKKEELTLEGIKQFYINVEREEWKLDTLCDLYETLTITQAVIFLNTRRKVDWLTEKMHARDFTVSALHGDMDQKERDVIMREFRSGSSRVLITTDLLARGIDVQQVSLVINYDLPTNRENYIHRIGRGGRFGRKGVAINFVTEEDKRILRDIETFYNTTVEEMPMNVADLI [EIF4A2] | -0.202 | -1.09 | -0.2 | 52.1 °C | 51.5 °C | 0.106 |

Source: the supplement of paper PMC5998384
